Results on 2 proteins are retold here after PMC10839789, “More indications for redox-sensitive cysteine residues of the Arabidopsis 5-aminolevulinate dehydratase” (Frontiers in Plant Science, 2023).

Where a chain is given by its changes, count along the chain named. Names and notes keep the numbering of the source.

Data set [1] concerns the molecule itself. Description: non-reducing SDS-PAGE with immunoblot (disulfide-linked oligomers); ALAD oxidised with diamide, dialysed, then 1 uM ALAD incubated 30 min with diamide, DTT (0.1-10 mM) or 0.1 mM DTT with TRX-f1/TRX-m1 (6.7 uM) or BSA (2 uM); free Cys blocked with NEM; non-reducing 10% SDS-PAGE; anti-His blot. (In general: Immunoblotting shows a protein as a band on a membrane.)

Data set [2] deals with the molecule itself. Description: non-reducing SDS-PAGE with immunoblot (disulfide-linked oligomers); recombinant ALAD preincubated 15 min at RT with 1 mM diamide (oxidising) or untreated; non-reducing 12% SDS-PAGE; anti-His blot.

B1: recombinant 6xHis-ALAD (Arabidopsis thaliana 5-aminolevulinic acid dehydratase 1, mature, wild type) (enzyme, UniProt Q9SFH9 53-430, looked up)
chain: ASESGNGHAKKLGMSDAECEAAVAAGNVPEAPPVPPKPAAPVGTPIIKPLNLSRRPRRNRASPVTRAAFQETDISPANFVYPLFIHEGEEDTPIGAMPGCYRLGWRHGLVQEVAKARAVGVNSIVLFPKVPEALKNSTGDEAYNDNGLVPRTIRLLKDKYPDLIIYTDVALDPYSSDGHDGIVREDGVIMNDETVHQLCKQAVSQARAGADVVSPSDMMDGRVGAIRSALDAEGFQNVSIMSYTAKYASSFYGPFREALDSNPRFGDKKTYQMNPANYREALIEAREDEAEGADILLVKPGLPYLDIIRLLRDKSPLPIAAYQVSGEYSMIKAGGVLKMIDEEKVMMESLMCLRRAGADIILTYFALQAATCLCGEKR
notes: ALAD1 (HEMB1, AT1G69740), Arabidopsis thaliana, cloned without the transit peptide (aa 1-52, ChloroP); mature ALAD1 is Ala53 to Arg430 of the 430-residue precursor; pET28a(+); also called ALAD1; ALAD(WT); source: E. coli Rosetta (DE3), purified (Ni-NTA agarose); not shown: His6, N-terminal, kept
For the protein B1, in data set [1], the binding result is recorded as “binds”.

B2: recombinant 6xHis-ALAD(C424S/C426S) (enzyme, Arabidopsis thaliana, UniProt Q9SFH9 53-430, looked up)
chain: B1 chain with C372S, C374S
notes: ALAD1 (HEMB1, AT1G69740), Arabidopsis thaliana, mature form without the transit peptide (aa 1-52), Ala53 to Arg430; made by site-directed mutagenesis of pET28a(ALAD); also called ALAD(C424/C426); source: E. coli Rosetta (DE3), purified (Ni-NTA agarose); not shown: His6, N-terminal, kept
For B2, the binding result in data set [2] was “binds”.
